The record followed here is paper PMC2265524, “ruvA Mutants That Resolve Holliday Junctions but Do Not Reverse Replication Forks” (PLoS Genetics, 2008).

In data set [1] the target is T1, RuvAz87 (Escherichia coli, UniProt P0A809 1-203, N79D;N100D).
T1 sequence: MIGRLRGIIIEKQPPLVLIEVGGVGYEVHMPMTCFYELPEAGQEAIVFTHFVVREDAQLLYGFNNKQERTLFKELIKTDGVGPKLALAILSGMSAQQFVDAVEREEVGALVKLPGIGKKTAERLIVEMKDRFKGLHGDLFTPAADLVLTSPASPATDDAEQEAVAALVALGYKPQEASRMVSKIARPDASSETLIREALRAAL
Description: EMSA; 5 mM EDTA; EMSA with ~4-5 ng labelled DNA; 5 mM EDTA (gel 0.5x TBE) or 3 mM MgCl2 without EDTA (gel 0.5x TB + 200 uM MgCl2); buffer as in cited ref 18; salt, pH and temperature not stated. As to conditions: protein: recombinant; chain copies: 4; label: 5' IRD700 on S24 (IT.01); fork of 3 strands; two arms double-stranded, one single-stranded (5' part of strand 2).

Data set [2] deals with T2, RuvAz3 (Escherichia coli, UniProt P0A809 1-203, H29R;K129E;F140S).
T2 sequence: T1 sequence with H29R, D79N, D100N, K129E, F140S
The description is as above. To be noted: protein: recombinant; chain copies: 4; label: 5' IRD700 on S24 (IT.01); fork of 3 strands; two arms double-stranded, one single-stranded (5' part of strand 2).

In data set [3] the target is T1, RuvAz87. Briefly: EMSA; 3 mM Mg2+; EMSA with ~4-5 ng labelled DNA; 5 mM EDTA (gel 0.5x TBE) or 3 mM MgCl2 without EDTA (gel 0.5x TB + 200 uM MgCl2); buffer as in cited ref 18; salt, pH and temperature not stated. As to conditions: protein: recombinant; chain copies: 4; label: 5' IRD700 on S24 (IT.01); three-arm fork of 4 strands, all arms double-stranded. On the technique in general: Mobility shift assays separate free from complexed probe on a gel.

Data set [4] has as its target T2, RuvAz3. Described as above. To be noted: protein: recombinant; chain copies: 4; label: 5' IRD700 on S24 (IT.01); three-arm fork of 4 strands, all arms double-stranded.

Positions count from the first letter of the chain named.

B1: F1 (fork, one arm single-stranded) (structured_DNA)
DNA 1: GACGCTGCCGAATTCTACCAGTGCCTTGCTAGGACATCTTTGCCCACCTGCAGGTTCACCC
DNA 2: ATGGATAGTCGGATCCTCTAGACAGCTCCATGTAGCAAGGCACTGGTAGAATTCGGCAGCGT
DNA 3: TGGGTGAACCTGCAGGTGGGCAAAGATGTCC
In the case of B1, the binding result in data set [1] and in data set [2] was “no binding” each time.

B2: F2 (fork, three double-stranded arms) (structured_DNA)
DNA 1: B1 DNA 1
DNA 2: B1 DNA 2
DNA 3: B1 DNA 3
DNA 4: CATGGAGCTGTCTAGAGGATCCGACTATCGA
Consider B2, for which the binding result in data set [3] and in data set [4] was “no binding” each time.
